Data published in patent US7812117B2, “Vasostatin as marrow protectant” (The United States of America as represented by the …, priority 1998, dated 2010).

Tests used:
[1] = system: variety of cell and cell lines; assay: Proliferation of a variety of cells and cell lines (mononuclear cells, lymphoid, tumor lines, fibroblasts); assay type: cell-based, human; conditions: vaso 0.25 to 50 μg/ml
Source text: Human mononuclear cells, and mononuclear cells enriched for B or T cells, were used in proliferation assays in the presence of phytohemagglutinin(Sigma), pokeweed mitogen (Sigma) or Epstein-Barr virus (B95-8 strain), as described previously (Tosato et al., 1988). The lymphoblastoid cell line VDS-0, the Burkitt cell lines CA46, BL41, KK124, Ag876, SHO (Cherney et al., 1997), the T-cell line Molt-4 (ATCC), the Hodgkin's lymphoma cell line Hs445 (ATCC); the prostate adenocarcinoma cell lines TSU-Prl (from A. Passaniti, NIH, Baltimore, Md.), Du145 (ATCC), and PC3 (ATCC), and the acute promyelocytic leukemia cell line HL60 (ATCC) were cultured in RPMI 1640 medium with 10% heat-inactivated FCS (BioWhittaker), […] L-glutamine (Sigma) and 5 μg/ml gentamicin, and tested in 3-5 days proliferation assays at cell densities varying from 300 to 2400 cells/microwell. The neuroblastoma cell line SKNMC (ATCC) was cultured in EMEM medium BioWhittaker) with 10% heat inactivated FCS and gentamicin and tested for proliferation at 125-1000 cells/well. The lung adenocarcinoma cell line A549 (ATCC) was cultured in F-12 Nutrient Mixture (HAM, Gibco BRL) with 10% heat-inactivated FCS, gentamicin and tested for proliferation at 250-2000 cells/well. […]

[2] = system: murine Lin- bone marrow cells enriched with hematopoietic progenitors; assay: Proliferation of lineage-negative bone marrow population enriched for hematopoietic progenitors; assay type: cell-based, mouse
Protocol: FIG. 11 is a set of two bar graphs showing the proliferative responses of unseparated (FIG. 11A) and purified (FIG. 11B) bone marrow cell populations in response to vaso. Bone marrow cell populations, obtained from the femural cavities of C57BL/6NCR mice (9 weeks of age) were either used as such or were further purified by negative selection as lineage negative (CD5, CD45R, CD11b, Gr-1 and TER119) cells by magnetic cell depletion. Both cell populations were incubated (0.5×10^6 cells/ml) in culture medium supplemented with IL-3 (20 ng/ml) with or without vaso (10 μg/ml). Cell proliferation was measured by ^3H thymidine incorporation during the final 22 hr of a 4, 5 or 6-day (D) culture. Data shown reflects the mean of triplicate cultures.
The examples described above utilized unpurified populations of murine bone marrow cells derived from the femur. To characterize the cell or cells within the bone marrow cell population that are targets of stimulation by vaso, cell separation experiments were performed. […]
The effects of vaso were tested on this cell population that is enriched with murine hematopoietic cells, and compared with unseparated bone marrow populations. […] On days 4 and 5, cell proliferation was measured. […]

[3] = system: murine bone marrow cells
[4] = system: human umbilical vein-derived (HUVEC) endothelial cells; conditions: as previously reported (Pike et al., 1998; 1999); cited from earlier work
[5] = system: peripheral white blood cells; assay: Peripheral white blood cell counts after total body irradiation of C57BL/6N mice; assay type: in vivo; conditions: vaso 300 μg/mouse/day s.c.
Protocol: In a subsequent experiment, groups of 8 week old C57BL/6N mice were irradiated with either 300 or 400 rad total body irradiation and treated the mice daily with s.c. inoculations of either buffer of vaso (300 μg/mouse/day). Peripheral white blood cell counts were obtained on days 5 and 9 post irradiation. On day 5, the total white cell count in the mice that had received 300 rad total body irradiation and had been treated with buffer was 1.2×10^3/mm^3 as opposed to 2.14×10^3/mm^3 in the mice treated with vaso. Also on day 5 post-irradiation, the total white cell count in the mice that had received 400 rad total body irradiation and had been treated with buffer was 0.66×10^3/mm^3 as opposed to 1.22×10^3/mm^3 in the mice treated with vaso. On day 9 post irradiation, the total white cell count in the mice that had received 400 rad total body irradiation and had been treated with buffer was 0.79×10^3/mm^3 as opposed to 1.37×10^3/mm^3 in the mice treated with vaso.

[6] = system: fetal bovine heart endothelial cells (FBHEC); conditions: as previously reported (Pike et al., 1998; 1999); cited from earlier work

B1: vaso: N-terminal domain of calreticulin (amino acids 1-180, SEQ ID NO:3); given as fusion protein with maltose binding protein, MBP-vaso (protein)
chain: EPAVYFKEQFLDGDGWTSRWIESKHKSDFGKFVLSSGKFYGDEEKDKGLQTSQDARFYALSASFEPFSNKGQTLVVQFTVKHEQNIDCGGGYVKLFPNSLDQTDMHGDSEYNIMFGPDICGPGTKKVHVIFNYKGKNVLINKDIRCKDDEFTHLYTLIVRPDNTYEVKIDNSQVESGSLE
modifications: Vasostatin
- effects on proliferation of a variety of cell and cell lines [1]: minimal stimulatory (or inhibitory) effects
- cell growth of murine bone marrow cells enriched for hematopoietic cells by negative selection ([2]; IL-3 alone or IL-3 together with IL-6 and Stem Cell Factor): similarly stimulated cell growth
- increase in cell proliferation on day 5 ([2]; enriched marrow, vaso 10 μg/ml, IL-3 20 ng/ml): 3.3 fold
- bone marrow cell proliferation induced by IL-3 at the highest dose of cisplatinum [3]: minimal
- proliferation of primary cultures of HUVEC [4]: consistently inhibited the proliferation
- total white cell count, day 5 post irradiation ([5]; 300 rad total body irradiation, buffer 1.2×10^3): 2.14×10^3 /mm^3
- total white cell count, day 5 post irradiation ([5]; 400 rad total body irradiation, buffer 0.66×10^3): 1.22×10^3 /mm^3
- total white cell count, day 9 post irradiation ([5]; 400 rad total body irradiation, buffer 0.79×10^3): 1.37×10^3 /mm^3
- proliferation of primary cultures of FBHEC [6]: consistently inhibited the proliferation
